Tests used:
[1] = target: Multidrug resistance-associated protein 1 (Homo sapiens, UniProt P33527); assay: TP_TRANSPORTER: transepithelial transport (basal to apical) in MRP1-expressing MDCKII cells; format: functional, cell-based; conditions: dog, mdck-ii
[2] = tested on: COc1cc([C@@H]2c3cc4c(cc3[C@@H](O[C@@H]3O[C@@H]5CO[C@@H](C)O[C@H]5[C@H](O)[C@H]3O)[C@H]3COC(=O)[C@H]23)OCO4)cc(OC)c1O; assay: TP_TRANSPORTER: transepithelial transport (basal to apical) in MDR1-expressing MDCKII cells; format: functional, cell-based, MDCK-II
[3] = substrate: COc1cc([C@@H]2c3cc4c(cc3[C@@H](O[C@@H]3O[C@@H]5CO[C@@H](C)O[C@H]5[C@H](O)[C@H]3O)[C@H]3COC(=O)[C@H]23)OCO4)cc(OC)c1O; assay: TP_TRANSPORTER: transepithelial transport (basal to apical) in MRP2-expressing MDCKII cells; format: functional, cell-based, MDCK-II

Multidrug resistance-associated protein 1, sequence (P33527 whole entry): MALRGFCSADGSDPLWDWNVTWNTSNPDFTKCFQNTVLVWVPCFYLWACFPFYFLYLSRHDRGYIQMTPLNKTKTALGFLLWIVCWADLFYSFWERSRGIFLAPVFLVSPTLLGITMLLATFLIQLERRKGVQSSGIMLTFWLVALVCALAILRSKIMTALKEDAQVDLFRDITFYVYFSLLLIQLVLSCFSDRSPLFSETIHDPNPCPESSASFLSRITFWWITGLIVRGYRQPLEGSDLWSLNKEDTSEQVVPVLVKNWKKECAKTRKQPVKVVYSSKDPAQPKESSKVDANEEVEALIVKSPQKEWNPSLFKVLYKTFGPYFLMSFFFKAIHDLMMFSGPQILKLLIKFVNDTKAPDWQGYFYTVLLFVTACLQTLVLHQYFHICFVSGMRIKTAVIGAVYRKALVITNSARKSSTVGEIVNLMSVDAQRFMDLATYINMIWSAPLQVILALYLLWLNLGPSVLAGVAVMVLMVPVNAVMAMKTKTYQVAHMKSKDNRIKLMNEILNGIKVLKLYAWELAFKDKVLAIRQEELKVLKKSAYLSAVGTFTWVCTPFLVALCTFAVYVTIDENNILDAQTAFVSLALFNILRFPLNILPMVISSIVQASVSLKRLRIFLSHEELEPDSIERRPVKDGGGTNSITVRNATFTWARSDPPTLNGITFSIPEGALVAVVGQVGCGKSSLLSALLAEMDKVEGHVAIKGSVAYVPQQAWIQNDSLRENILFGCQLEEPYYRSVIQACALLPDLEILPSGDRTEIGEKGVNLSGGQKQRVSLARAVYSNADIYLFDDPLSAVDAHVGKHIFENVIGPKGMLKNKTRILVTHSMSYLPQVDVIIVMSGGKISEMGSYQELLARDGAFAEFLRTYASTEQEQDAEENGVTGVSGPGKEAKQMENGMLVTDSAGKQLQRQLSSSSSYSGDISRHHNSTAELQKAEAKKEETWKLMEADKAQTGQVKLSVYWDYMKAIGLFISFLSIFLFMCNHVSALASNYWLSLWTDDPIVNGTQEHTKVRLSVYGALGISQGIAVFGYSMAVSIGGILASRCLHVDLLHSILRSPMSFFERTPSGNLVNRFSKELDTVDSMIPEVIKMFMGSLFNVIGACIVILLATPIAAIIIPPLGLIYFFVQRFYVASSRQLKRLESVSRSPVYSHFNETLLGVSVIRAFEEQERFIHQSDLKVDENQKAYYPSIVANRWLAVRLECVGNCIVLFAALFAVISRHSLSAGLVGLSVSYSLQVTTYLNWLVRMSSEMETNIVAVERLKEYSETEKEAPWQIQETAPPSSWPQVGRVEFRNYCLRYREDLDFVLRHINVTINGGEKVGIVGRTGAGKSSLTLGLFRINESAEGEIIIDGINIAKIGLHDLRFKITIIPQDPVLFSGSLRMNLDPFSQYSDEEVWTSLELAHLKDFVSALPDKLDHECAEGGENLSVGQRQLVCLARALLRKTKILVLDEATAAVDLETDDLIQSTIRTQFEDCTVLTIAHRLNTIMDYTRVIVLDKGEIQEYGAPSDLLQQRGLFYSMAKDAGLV

Which Activity [1] does the source give for COc1cc([C@@H]2c3cc4c(cc3[C@@H](O[C@@H]3O[C@@H]5CO[C@@H](C)O[C@H]5[C@H](O)[C@H]3O)[C@H]3COC(=O)[C@H]23)OCO4)cc(OC)c1O [ETOPOSIDE] here?
The Activity was “is not a substrate [-]”.

“ATP-dependent translocase ABCB1 (Homo sapiens)” was tested. Which Km [2] did it give?
Its Km is 255 µM.

B1: ATP-binding cassette sub-family C member 2 (Homo sapiens) (protein)
chain: MLEKFCNSTFWNSSFLDSPEADLPLCFEQTVLVWIPLGYLWLLAPWQLLHVYKSRTKRSSTTKLYLAKQVFVGFLLILAAIELALVLTEDSGQATVPAVRYTNPSLYLGTWLLVLLIQYSRQWCVQKNSWFLSLFWILSILCGTFQFQTLIRTLLQGDNSNLAYSCLFFISYGFQILILIFSAFSENNESSNNPSSIASFLSSITYSWYDSIILKGYKRPLTLEDVWEVDEEMKTKTLVSKFETHMKRELQKARRALQRRQEKSSQQNSGARLPGLNKNQSQSQDALVLEDVEKKKKKSGTKKDVPKSWLMKALFKTFYMVLLKSFLLKLVNDIFTFVSPQLLKLLISFASDRDTYLWIGYLCAILLFTAALIQSFCLQCYFQLCFKLGVKVRTAIMASVYKKALTLSNLARKEYTVGETVNLMSVDAQKLMDVTNFMHMLWSSVLQIVLSIFFLWRELGPSVLAGVGVMVLVIPINAILSTKSKTIQVKNMKNKDKRLKIMNEILSGIKILKYFAWEPSFRDQVQNLRKKELKNLLAFSQLQCVVIFVFQLTPVLVSVVTFSVYVLVDSNNILDAQKAFTSITLFNILRFPLSMLPMMISSMLQASVSTERLEKYLGGDDLDTSAIRHDCNFDKAMQFSEASFTWEHDSEATVRDVNLDIMAGQLVAVIGPVGSGKSSLISAMLGEMENVHGHITIKGTTAYVPQQSWIQNGTIKDNILFGTEFNEKRYQQVLEACALLPDLEMLPGGDLAEIGEKGINLSGGQKQRISLARATYQNLDIYLLDDPLSAVDAHVGKHIFNKVLGPNGLLKGKTRLLVTHSMHFLPQVDEIVVLGNGTIVEKGSYSALLAKKGEFAKNLKTFLRHTGPEEEATVHDGSEEEDDDYGLISSVEEIPEDAASITMRRENSFRRTLSRSSRSNGRHLKSLRNSLKTRNVNSLKEDEELVKGQKLIKKEFIETGKVKFSIYLEYLQAIGLFSIFFIILAFVMNSVAFIGSNLWLSAWTSDSKIFNSTDYPASQRDMRVGVYGALGLAQGIFVFIAHFWSAFGFVHASNILHKQLLNNILRAPMRFFDTTPTGRIVNRFAGDISTVDDTLPQSLRSWITCFLGIISTLVMICMATPVFTIIVIPLGIIYVSVQMFYVSTSRQLRRLDSVTRSPIYSHFSETVSGLPVIRAFEHQQRFLKHNEVRIDTNQKCVFSWITSNRWLAIRLELVGNLTVFFSALMMVIYRDTLSGDTVGFVLSNALNITQTLNWLVRMTSEIETNIVAVERITEYTKVENEAPWVTDKRPPPDWPSKGKIQFNNYQVRYRPELDLVLRGITCDIGSMEKIGVVGRTGAGKSSLTNCLFRILEAAGGQIIIDGVDIASIGLHDLREKLTIIPQDPILFSGSLRMNLDPFNNYSDEEIWKALELAHLKSFVASLQLGLSHEVTEAGGNLSIGQRQLLCLGRALLRKSKILVLDEATAAVDLETDNLIQTTIQNEFAHCTVITIAHRLHTIMDSDKVMVLDNGKIIECGSPEELLQIPGPFYFMAKEAGIENVNSTKF
With B1 as the molecule, how does the Km [3] read?
Its Km is 617 µM.
